Molecular target: IGF2BP2-dRRM (Homo sapiens, UniProt Q9Y6M1 158-599)
Assay: pull-down

IGF2BP2-dRRM, sequence (Q9Y6M1 158-599): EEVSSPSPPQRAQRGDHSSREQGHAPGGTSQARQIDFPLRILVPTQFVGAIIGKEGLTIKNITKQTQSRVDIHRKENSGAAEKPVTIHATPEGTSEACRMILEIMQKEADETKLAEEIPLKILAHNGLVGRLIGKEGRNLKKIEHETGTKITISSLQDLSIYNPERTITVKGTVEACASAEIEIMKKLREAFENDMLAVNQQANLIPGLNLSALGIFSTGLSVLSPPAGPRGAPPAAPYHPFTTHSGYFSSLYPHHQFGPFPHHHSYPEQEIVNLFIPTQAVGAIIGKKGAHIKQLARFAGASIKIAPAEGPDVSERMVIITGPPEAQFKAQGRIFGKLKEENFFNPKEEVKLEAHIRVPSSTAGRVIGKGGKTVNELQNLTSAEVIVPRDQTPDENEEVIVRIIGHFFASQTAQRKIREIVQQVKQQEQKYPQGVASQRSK

CGUCUCGGACUCGGACUGCU (ssRNA, m6A at positions 9 and 15) [ss-m6A (biotin)]
binding result: binds

Source: PMC5826585
